# Data taken from patent US20260035464A1 (STAIDSON BIOPHARMA, published 2026).
# T1: extracellular domain of human BTLA with FAS, expressed on Jurkat cells (human, UniProt Q7Z6A9 31-157; P25445 174-335, limits assumed)
# T1 sequence (looked up): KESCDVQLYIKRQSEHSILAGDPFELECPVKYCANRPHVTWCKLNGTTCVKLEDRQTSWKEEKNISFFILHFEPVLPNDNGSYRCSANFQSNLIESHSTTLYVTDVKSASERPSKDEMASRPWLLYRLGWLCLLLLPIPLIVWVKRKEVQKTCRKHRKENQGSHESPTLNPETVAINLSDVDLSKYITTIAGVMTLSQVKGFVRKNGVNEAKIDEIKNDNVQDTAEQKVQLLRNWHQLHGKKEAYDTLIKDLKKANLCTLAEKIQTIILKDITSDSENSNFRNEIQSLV
# T2: human BTLA extracellular domain with C-terminal 10xHis tag (human, UniProt Q7Z6A9 31-157)
# T2 construct: also called HuBTLA-His; His-tag-huBTLA
# T2 sequence: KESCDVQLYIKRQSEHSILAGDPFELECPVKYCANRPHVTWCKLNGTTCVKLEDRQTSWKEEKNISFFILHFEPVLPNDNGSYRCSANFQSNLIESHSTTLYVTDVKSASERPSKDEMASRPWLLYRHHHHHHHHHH
# T3: rhesus monkey BTLA extracellular domain protein with His tag (Sino Biological, cat #90250-C08H) (rhesus monkey, UniProt G7MKA9 31-157)
# T3 construct: extracellular domain; Bought protein; also called His-tag-rhesus monkey BTLA; not shown: His tag
# T3 sequence: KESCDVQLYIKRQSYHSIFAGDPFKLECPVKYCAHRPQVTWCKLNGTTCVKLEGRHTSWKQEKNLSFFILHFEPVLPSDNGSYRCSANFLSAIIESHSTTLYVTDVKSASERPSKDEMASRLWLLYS
# T4: huBTLA as coated in the binding ELISA of Example 3 (tag not stated) (human, UniProt Q7Z6A9 31-157)
# T4 construct: Detection was with anti-human IgG Fc
# T4 sequence: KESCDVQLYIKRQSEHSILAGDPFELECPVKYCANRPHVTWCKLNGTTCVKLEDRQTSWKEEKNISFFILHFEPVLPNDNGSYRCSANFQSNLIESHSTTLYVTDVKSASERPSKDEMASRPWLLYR
# Experiments:
# [1] = molecular target: T5, human BTLA (Uniprot Q7Z6A9) expressed on cells (human, UniProt Q7Z6A9 31-289); experiment: flow cytometry blocking assay on huBTLA-overexpressing Expi293 cells, antibody titrated, soluble human HVEM-mouse IgG2a Fc detected
# T5 construct: whole, on cells; also called huBTLA-overexpressing Expi293 cells
# Protocol: (§1) Expi293 cells stably overexpressing huBTLA were incubated with chimeric anti-BTLA antibody 83F2 or 86B7 for 30 minutes at 4° C. The cells were washed, and then incubated with human HVEM-mouse IgG2a Fc recombinant protein (Acro Biosystems, cat #HVM-H5255) at […] concentration for 20 minutes at 4° C. The human HVEM bindings were detected by goat anti-mouse Alexa 488 secondary antibody (ThermoFisher, cat #A-11029). Cells were washed and acquired by flow cytometry with Attune. Data were analyzed with FlowJo software. BTLA binding is represented as MFI.
# FACS based blocking assays of humanized anti-BTLA antibodies were performed as described above in Example 3.
# [2] = molecular target: T5, human BTLA (Uniprot Q7Z6A9) expressed …; experiment: flow cytometry blocking on huBTLA-overexpressing Expi293 cells; competitor human HVEM-mouse IgG2a Fc
# Protocol: as §1
# [3] = molecular target: T1, extracellular domain of human BTLA with …; experiment: cell-based or functional assay
# [4] = molecular target: T2, human BTLA extracellular domain with …; experiment: BLI (Octet RED96), antibody captured on AHC biosensor, His-tag-huBTLA in solution, 1:1 model
# Protocol: The following kinetic assay was performed using anti-human IgG Fc capture (AHC) biosensors (ForteBio) in kinetics buffer (PBS, 0.1% Tween-20 and 1% bovine serum albumin): (a) antibody (2 μg/mL) for 300 sec, (b) baseline for 120 sec, (c) association with purified His-tag-huBTLA (2.5, 0.5 and 0 μg/mL) and His-tag-rhesus monkey BTLA (Sino Biologcal, cat #90250-C08H) (2.5, 0.5 and 0 μg/mL) for 420 sec and (d) dissociation for 1200 sec. Data fitting and analysis was performed with Octet data analysis software 8.0 (ForteBio) using a 1:1 binding model after Savitzky-Golay filtering.
# [5] = molecular target: T3, rhesus monkey BTLA extracellular domain …; experiment: ELISA, rhesus monkey BTLA coated at 0.333 ug/mL, anti-human IgG Fc-AP detection
# Protocol: (§2) BTLA binding of purified recombinant chimeric antibodies by ELISA: The huBTLA and rhesus monkey BTLA antigen binding ELISA was performed on the purified recombinant chimeric antibodies. Briefly, 384-well, clear flat bottom high binding plates (Corning, cat #3700) were coated overnight at 4° C. with 0.333 μg/mL of huBTLA or rhesus monkey BTLA in PBS. The following purified process was performed as described in ELISA binding assay in Example 2, except that the secondary antibody was goat anti human IgG Fc-AP (Southern Biotech, cat #2014-04).
# [6] = molecular target: T4, huBTLA as coated in the binding ELISA …; experiment: ELISA, plate coated with huBTLA, detection with goat anti-human IgG Fc-AP, OD405
# Protocol: as §2
# [7] = molecular target: T5, human BTLA (Uniprot Q7Z6A9) expressed …; experiment: flow cytometry on huBTLA-overexpressing Expi293 cells, MFI
# Protocol: Expi293 cells stably overexpressing huBTLA were incubated with the chimeric anti-BTLA antibodies 83F2 or 86B7 in PBS containing 0.5% BSA, 1 mM EDTA, and 0.1% sodium azide (FACS buffer) for 30 minutes at 4° C. The cells were washed, and then incubated with 10 nM phycoerythrin (PE) conjugated anti-Human Fc Ab (BioLegend, cat #409304) for 20 minutes at 4° C. Cells were washed and then analyzed by flow cytometry with Attune (ThermoFisher Scientific). Data were analyzed with FlowJo software. Antibody binding is represented as median fluorescence intensity (MFI).
# FACS based binding assays of humanized anti-BTLA antibodies were performed as described above in Example 3.
# [8] = molecular target: T3, rhesus monkey BTLA extracellular domain …; experiment: ELISA, plate coated with rhesus monkey BTLA, detection with goat anti-human IgG Fc-AP, OD405
# Protocol: as §2
binder,measurement,setting,value
"chimeric anti-BTLA antibody 86B7 (antibody, V domains shown) VH: QVTLKESGPGILQPSQTLSLTCSFSGFSLSTFGMGVSWIRQPSGKGLEWLAHIYWDDDKRFNPSLKSRLSISKDTSNNQVFLKITTVDTADTATYYCARGNWDGETYFDYWGQGTTLTVSS VL: not shown",IC50 (read off the curve),[1],~0.4 nM
same,IC50,[2],0.259 nM
same,"EC50 of inhibition of huHVEM-Fc-induced apoptosis, Jurkat-huBTLA-FAS cells (ATP luminescence)",[3],0.109 nM
same,Kd,[4],0.257 nM
same,koff,[4],9.98e-05 s⁻¹
same,kon,[4],389000 M⁻¹ s⁻¹
same,EC50,[5],0.0559 nM
same,EC50 (read off the curve),[6],~0.4 nM
same,EC50 (read off the curve),[7],~0.8 nM
same,EC50 (read off the curve),[8],~0.4 nM
